In patent EP1086117B1:

Assays:
[1] = molecular target: human motilin receptor spliced form A (MTL-R1A) (human); test: displacement of [125I] human motilin from crude membranes of MTL-R1A transfected HEK-293/aeq17 cells
[2] = molecular target: human motilin receptor spliced form A (MTL-R1A) (human); test: cell-based or functional assay
[3] = molecular target: human motilin receptor spliced form A (MTL-R1A) (human); test: direct radioligand binding on cell membranes of MTL-R1A transfected cells

Row | Substance | IC50 [1] [nM] | Aequorin Assay (EC50 nM) [2] [nM] | Bmax (fmol/mg protein) [3] | Kd [3] [nM] | bioluminescent response, aequorin assay, 100 nM peptide (fold over background) [2]
1 | 1-12 MTL (from UniProt P12872 26-37) (peptide) | 14 | 72 |  |  | 
2 | Leu 13 MTL (from UniProt P12872 26-115) (peptide) | 0.2 | 3.9 |  |  | 
3 | canine motilin (from UniProt P19863 1-22) (peptide) | 0.2 | 4.4 |  |  | 
4 | human motilin (MTL) (from UniProt P12872 26-47) (peptide) | 0.5 | 2.1 |  |  | > 4

Further lines, results first:

Row | IC50 [1] [nM] | Aequorin Assay (EC50 nM) [2] [nM] | Bmax (fmol/mg protein) [3] | Kd [3] [nM] | bioluminescent response, aequorin assay, 100 nM peptide (fold over background) [2] | Substance
5 | 127 | 138 |  |  |  | 1-11 MTL (from UniProt P12872 26-36) (peptide)
6 | 0.9 | 3.8 |  |  |  | 1-13 MTL (from UniProt P12872 26-38) (peptide)
7 | 0.3 | 4.1 |  |  |  | 1-19 MTL (from UniProt P12872 26-44) (peptide)
8 | 1100 | > 10000 |  |  |  | 10-22 MTL (from UniProt P12872 35-47) (peptide)
9 |  |  | 240 | 0.1 |  | [125I]-Tyr7-human motilin (from UniProt P12872 26-47) (peptide)
